Measured values as given in PMC5260992.

Biological target: Pin1 (UniProt Q13526)
Assay: modified ELISA, plate-coated peptide
Settings: reference: non-phosphorylated peptide T184; sites T184

binding against the reference: stronger
Substance: ATF1 (activating transcription factor 1) (from UniProt P18846) phosphorylated peptide pT184
